From the supplement of paper PMC10567573

B1: WDFY1 (parent)
chain: FWNIKQMWDTKTLGLRQHHCRKCG
B2: FBXO34 (parent)
chain: PRYREDPCKQCKKKYVKGDVSLCR

Variants of: B1
Experiment: protein stability index of a GFP-peptide fusion (GPS, HEK-293T) (PSI 1-6); higher = more stable
Settings: c terminus: a fixed tail appended
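Also: lentivirally expressed fusions sorted by FACS into six bins by GFP to DsRed ratio, PSI derived from sequencing read proportions per bin multiplied by bin number.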

Protein stability index of substitutions, site by site:
C23: W 1.75; I 1.93; P 2.19; Q 2.3; H 2.78; F 1.59; E 1.93; Y 2.04; K 2.71; D 2.82; T 2.34; L 2.81; R 2.09; N 2.57; A 2.18; M 2.6
G24: M 1.85; V 2.01; N 2.09; Y 2.01; E 2.18; R 2.35; L 2.22; Q 2.21; T 2.29; H 2.13; D 2.15; C 2.22; W 2.12; F 1.96; S 2.1; I 2.11; A 1.84; K 2.5; P 1.88
K22: A 1.59; L 1.34; C 1.7; S 1.66; D 3.4; Q 2.01; N 1.99; E 1.6; Y 2.2; G 1.82; F 3.26; H 1.44; P 1.98; V 1.41; M 1.03
H19: R 1.75; T 1.59; W 1.66; V 2.17; Y 2.5; S 2.13
C20: M 2.57; D 3.16; H 2.69; I 2.17; V 2.2; T 2.52; W 2.06; Y 2.23; Q 3.22; F 2.41; S 2.44; E 2.09; N 2.52; P 1.73; R 2.4; G 1.87; A 1.82; L 2.23
R21: M 1.71; G 1.84; D 2.8; F 1.85; Q 2.28; K 2.78; S 2.16; Y 2.14; L 1.67; P 2.07; A 2.03; H 1.57; C 2.12; N 1.83; T 2.62; E 2.07; W 2.46; I 1.72

Variants of: B2
Experiment: as above
Settings: c terminus: a fixed tail appended

Protein stability index: each site, then its substitutions
K14: F 2.5; E 2.69; L 2; I 2.19; A 2.17; P 2.85; H 2.29; R 2.88; C 1.84; Y 2.12; S 2.45; D 2.24
C8: T 3.98; H 3.63; F 3.15; M 2.95; S 3.82; Y 3.33; I 3.57; P 3.7
K13: G 2.68; Y 2.16; I 2.05; R 2.6; H 2.35; W 2.65; F 2.55; S 2.63; C 2.23; M 2.47; V 2.59; L 2.94; P 1.68
R24: V 3.34; S 3.39; F 2.51; H 3.42; N 3.46; K 4.33; C 3.58; A 2.9
C23: M 2.95; I 2.59; S 2.58; D 3.3; T 3.12; K 3.29; F 2.27; Q 1.9; P 2.52; E 2.71; R 2.86; Y 2.11
G18: M 2.18; H 3.23; P 3.13; W 2.3; F 2.16; C 2.94; Y 2.35; E 3.17; D 2.86; N 2.92; I 2.35
V16: W 2.31; Q 2.63; K 2.75; I 2.5; M 2.19; A 3.11; H 2.77; N 2.52; D 2.73
P1: N 3.42; V 2.22; L 1.93; E 3.4; Y 2.45; S 2.6; T 2.75; M 2.75; F 2.61; K 3.65
S21: M 2.51; F 2.67; Q 3.14; P 2.53; N 2.64; Y 2.18; I 2.34; T 2.66; V 3.13
Y3: T 2.65; S 2.8; K 2.63; D 2.82; M 2.56; P 3.07; A 3.39; G 3.39; R 3.24; W 2.55; I 2.76; L 2.73; N 2.84
D19: L 2.43; H 2.88; Q 2.71; P 2.66; F 2.23; G 2.63; W 2.56; T 2.97; R 3.41; Y 2.56; C 3.07
K9: M 2.45; H 2.29; L 2.42; N 2.46; D 2.54; P 2.28
K17: D 2.52; N 2.77; F 2.04; C 2.52; M 2.39; P 2.83; A 2.89; Y 2.29; W 2.72; L 1.96
P7: H 2.23; E 2.76; A 2.8; L 1.85; I 2.38; F 2.22; C 2.26; S 2.69; M 2.42; G 2.7; D 2.85
R2: V 2.98; I 2.98; N 2.85; L 2.76; A 2.96; H 2.86; C 2.41; Y 2.64; Q 3
C11: Q 3.75; T 3.57; A 3.23; Y 2.76; V 3.11; S 4.07; L 3.31; N 4.14; D 4.4; K 4.09; P 3.99
K12: W 2.37; I 2.33; E 2.86; T 2.57; G 2.5; Q 2.57; F 1.79; A 2.52; L 2.28; D 2.57
E5: K 3.27; A 2.66; T 2.67; V 2.83; Q 2.83; N 2.58; G 2.68; L 2.78; S 2.58; D 2.94; F 2.57
Q10: C 2.13; R 2.75; M 2.09; W 2.69; V 3.28; F 1.77; L 2.04; S 3.13; H 2.39; N 2.64; Y 2.72
L22: T 2.93; G 3.18; V 3.23; N 3.01; C 3.15; Y 2.54; Q 2.32; F 2.58; K 3.6; W 2.08
R4: C 2.94; N 2.99; F 2.69; L 2.89; T 2.97; K 2.79; D 3.17; A 3.38; Y 2.66
Y15: A 2.8; W 2.79; R 3.31; E 3.12; V 2.94; T 3.13; P 2.98; I 2.95; G 3.47; D 3.06; L 3.1
D6: R 3.19; S 2.5; V 2.58; C 2.61; L 2.15; E 3.14; A 2.46; F 2.35; M 2.92; Y 2.3; Q 3.71
V20: G 2.18; H 3.51; Q 3.31; N 2.97; R 2.49; P 3.05
